This is an account of results in patent publication US5516685A, “Isolation and characterization of a novel protease from Streptomyces lividans” (Amgen Inc., priority 1994, dated 1996).

One data set concerns Protease X. It is filed as biochemical, Streptomyces lividans. As to conditions: for effect of additive on the protease's activity: additive at 20 mM. Here is the method:
(§1) The characteristics of the protease reaction catalyzed by this enzyme were determined using the synthetic substrate assay where various synthetic substrates are dissolved at a concentration of 100 mg/ml in dimethylsulfoxide (DMSO). 200 μl aliquots from bacterial culture supernatants were mixed with 780 μl of 5 mM Tris, 25 mM NaCl, pH 7, and incubated at the desired temperature Digestions were then initiated by the addition of 20 μl of substrate and the rate of absorbance at 405 nm was followed for several minutes.
^a The assays were performed for 2 min. at 65° C. at pH 7.5.

Data set [1] in a line: synthetic substrate assay of protease-containing S. lividans (pHL45) broth. It is filed as biochemical. Conditions: for Activity (dA/min): control broth activity subtracted. On the procedure:
as §1
Here, the broth from recombinant S. lividans containing pHL45, as well as the broth from an identical S. lividans culture containing a control plasmid only (pIJ699), were compared for proteolytic activity by directly assaying activity in the presence of several different substrates. This experiment was conducted at 37° C. pH 7.0 and 65° C. pH 7 5, in the presence of 10 mM calcium. The substrates tested were: succinyl-ala-ala-pro-phe-pNitroanilide, succinyl-tyr-leu-val-pNitroanilide, ala-pNitroanilide, and leu-pNitroanilide. […] The temperature optimum for the proteolytic reaction was determined using succinyl-ala-ala-pro-phe-pNitroanilide in 10 mM Tris, 25 mM NaCl, pH 7.0.

A further data set concerns azocasein. Briefly: azocasein assay. The format is biochemical. As to conditions: longer incubation times. On the procedure: After washing the column with buffer, the dialysed protein sample was loaded onto the column. The protein was eluted using a linear gradient of 0.0 to 0.5M NaCl. The eluate's A280 was monitored and 8 ml fractions were collected. […] Following the incubation, the assay reaction was terminated by the addition of 200 μl of 10% trichloroacetic acid and incubation at room temperature for several minutes. The solutions were then neutralized by adding 200 μl 0.2N NaOH to each sample. Samples were centrifuged 2 min. The supernatants were removed and the activity of the fractions was determined from the increase in absorbance at 420 nm.

A further data set has as its system proteins. Briefly: peptide mapping of the protease. The format is biochemical. As to conditions: fragments generated during peptide mapping of the protease.
[2] abbreviates: 20 mM additive, 2 min. at 65° C. at pH 7.5, 0.170 without additive.

Read-outs that look alike come from different tables or passages of the source.

`[Ca+2].[Cl-].[Cl-]` [CaCl2]: the “Protease activity (dA/min) in presence of additive” value (shortened to “Protease activity (dA/min)”) in the data set with Protease X (5 mM additive, 2 min. at 65° C. at pH 7.5, 0.170 without additive) is reported as 0.235 dA/min; in the data set with Protease X (setting [2]), 0.251 dA/min. The “effect of additive on the protease's activity” value with Protease X (65° C., pH 7.5) is “enhanced”.

On to `O=S(=O)(F)Cc1ccccc1` [PMSF, reference compound], for which the “Protease activity (dA/min)” value in the data set with Protease X (1 mM additive, 2 min. at 65° C. at pH 7.5, 0.170 without additive) amounted to 0.000 dA/min. Also, in the data set on Protease X (addition of PMSF, 65° C., pH 7.5), the “effect of additive on the protease reaction” value was “totally inhibited”.

For the molecule `[Cl-].[Cl-].[Mg+2]` [MgCl2], the “Protease activity (dA/min)” value in the data set with Protease X (setting [2]) is listed as 0.250 dA/min. Moreover, in the data set with Protease X (65° C., pH 7.5), the “effect of additive on the protease's activity” value is reported as “appears to enhance”.

Regarding `O=C(O)CN(CCN(CC(=O)O)CC(=O)O)CC(=O)O` [EDTA, reference compound], the “Protease activity (dA/min)” value in the data set on Protease X (pH 7.5) is 0.120 dA/min.

B1: Protease X: novel protease [SEQ ID NO: 2] secreted into the culture medium by S. lividans (protein)
chain: MRITLPLLSTAVGLGLTAAVLGTGPAATAAAPQEPVRAAQLGYQPSAGSGEDAAANRAFFEAVVKSVAEKRAANPSAAAAVTVYYSATNAPSFRSQISRSAQIWNSSVSNVRLAESSSGADFAYYEGNDSRGSYASTDGHGSGYIFLDYRQNQQYDSTRVTAHETGHVLGLPDHYSGPCSELMSGGGPGPSCTNPYPNSTERSRVNQLWAYGFQAALDKALEKASQR
For B1, in data set [1] (10 mM Tris, 25 mM NaCl, pH 7.0), the “temperature optimum for cleavage of succinyl-ala-ala-pro-phe-pNitroanilide” value is 65 °C. Further, the “time for which catalytic rate remains linear” value in data set [1] (65° C.) is on record as “at least 2 min”. The same molecule yielded a pH optimum in data set [1] (65° C. reaction) of 7.5 pH. In data set [1] (70° C., initial catalytic rate very fast, enzyme apparently becomes denatured), the “thermal stability of the activity” value was “activity drops off dramatically”. For the same molecule, the “Activity (dA/min)” value in data set [1] (Temperature 30.000, 10 mM Tris, 25 mM NaCl, pH 7.0) is 0.008 dA/min; in data set [1] (Temperature 40.000, 10 mM Tris, 25 mM NaCl, pH 7.0) it was 0.017 dA/min; in data set [1] (Temperature 50.000, 10 mM Tris, 25 mM NaCl, pH 7.0) it was 0.042 dA/min; in data set [1] (Temperature 60.000, 10 mM Tris, 25 mM NaCl, pH 7.0), 0.074 dA/min; in data set [1] (Temperature 65.000, 10 mM Tris, 25 mM NaCl, pH 7.0) it was 0.085 dA/min; in data set [1] (Temperature 70.000, 10 mM Tris, 25 mM NaCl, pH 7.0), 0.047 dA/min. The “Activity (dA/min)” value in data set [1] (no additive, 2 min. at 65° C. at pH 7.5) amounted to 0.170 dA/min; in data set [1] (pH 6.000, 65° C. reaction) it was 0.048 dA/min; in data set [1] (pH 7.000, 65° C. reaction), 0.085 dA/min; in data set [1] (pH 7.500, 65° C. reaction), 0.190 dA/min; in data set [1] (pH 8.000, 65° C. reaction), 0.105 dA/min. Moreover, in data set [1] (only substrate of four tested, 37° C. pH 7.0 and 65° C. pH 7 5, 10 mM calcium), the “proteolytic activity on substrate compared with control broth (pIJ699)” value is given as “showed activity above that of the control”. In addition, the “temperature optimum in the azocasein assay” value in the data set with azocasein was 60 °C. For the same molecule, in the data set on proteins, the cleavage site preference entry is recorded as “preferentially processes proteins amino-terminally of tyrosine”.
